Measurements from PMC8629194 (bioRxiv, 2021).

Biological target: wt ACE2_(615)-Fc (M27) (human, UniProt Q9BYF1 18-615)
Test: SPR

wt ACE2_(615)-Fc (M27), sequence (Q9BYF1 18-615): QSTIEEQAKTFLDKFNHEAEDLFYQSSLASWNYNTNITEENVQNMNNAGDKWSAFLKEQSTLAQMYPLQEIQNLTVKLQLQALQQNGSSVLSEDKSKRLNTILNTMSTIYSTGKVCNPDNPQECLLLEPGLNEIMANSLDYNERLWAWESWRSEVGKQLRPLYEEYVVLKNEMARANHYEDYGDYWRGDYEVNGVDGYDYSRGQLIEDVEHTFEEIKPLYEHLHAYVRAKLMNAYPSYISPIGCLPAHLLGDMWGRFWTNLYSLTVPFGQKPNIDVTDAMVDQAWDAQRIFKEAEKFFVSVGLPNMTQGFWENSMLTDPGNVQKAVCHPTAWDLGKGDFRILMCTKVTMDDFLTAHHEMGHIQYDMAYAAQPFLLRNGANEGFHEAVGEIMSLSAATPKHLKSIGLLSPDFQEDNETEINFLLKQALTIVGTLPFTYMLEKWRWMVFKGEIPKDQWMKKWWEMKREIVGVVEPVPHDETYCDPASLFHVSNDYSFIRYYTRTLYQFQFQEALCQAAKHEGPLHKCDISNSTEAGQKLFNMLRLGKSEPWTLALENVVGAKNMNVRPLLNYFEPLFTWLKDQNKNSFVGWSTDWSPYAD

B1: SARS-CoV RBD (residue 306–577) (domain or fragment)
chain: not shown
For B1, the “fold, affinity of RBDwt for M27 over that of SARS-CoV-1 RBD” value was ~5 fold.
